Assay results reported in patent US20040009568.

Columns and labels:
[1] = target: dephosphorylated α-casein (UniProt P02662)
Chain of dephosphorylated α-casein (P02662 16-214): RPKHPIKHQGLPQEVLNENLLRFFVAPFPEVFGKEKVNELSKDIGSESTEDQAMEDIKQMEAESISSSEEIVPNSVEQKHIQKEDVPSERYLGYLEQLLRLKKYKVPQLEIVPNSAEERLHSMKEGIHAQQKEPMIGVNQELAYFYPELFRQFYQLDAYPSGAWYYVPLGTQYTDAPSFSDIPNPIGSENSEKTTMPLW

Row | Substance | autophosphorylation rate | Km (steady-state, coupled enzymatic assay, 37 C) (poly(Glu4Tyr)) [mM] | kcat/Km (steady-state, coupled enzymatic assay, 37 C) (poly(Glu4Tyr)) [s^-1M^-1] | Km, Dephosphorylated α-casein (coupled, enzymatic format) [1] [mM]
1 | catalytic domain of the human hepatocyte growth factor receptor kinase (HGFRkd), unphosphorylated | The HGFR autophosphorylation rate is dependent on the concentration of HGFR. | 10.1 | 48.1 | 
2 | phosphorylated HGFR (autophosphorylated catalytic domain of the human hepatocyte growth factor receptor kinase) |  | 8.19 | 9260 | 0.0285 ± 0.0035
